Test results published in PMC3275625.

Molecular target: SITS-labeled human αB-crystallin wild type (human) (UniProt P02511)
Assay: FRET or BRET; in vitro subunit exchange: equal amounts (0.4 mg/ml) of SITS-labeled αB-wt (donor) and LYI-labeled αA-wt or mutant (acceptor) mixed at 37°C in 20 mM MOPS, 100 mM NaCl, pH 7.9; excitation 336 nm, rate constant k from the increase of acceptor emission at 515 nm, fit Ft/F0 = A1+A2e^-kt

Sequence of LYI-labeled human αA-crystallin wild type (P02489 whole entry): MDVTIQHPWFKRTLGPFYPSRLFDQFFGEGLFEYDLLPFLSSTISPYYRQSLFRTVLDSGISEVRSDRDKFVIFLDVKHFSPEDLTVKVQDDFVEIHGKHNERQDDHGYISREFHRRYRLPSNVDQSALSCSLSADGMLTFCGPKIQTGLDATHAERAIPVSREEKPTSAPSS
Sequence of SITS-labeled human αB-crystallin wild type (human) (P02511 whole entry): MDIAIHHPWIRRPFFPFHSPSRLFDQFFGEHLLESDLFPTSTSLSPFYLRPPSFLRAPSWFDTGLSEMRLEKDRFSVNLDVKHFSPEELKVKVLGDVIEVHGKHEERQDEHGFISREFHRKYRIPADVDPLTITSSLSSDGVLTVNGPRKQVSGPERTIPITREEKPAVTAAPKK

k (rate constant of subunit exchange): 0.000657 S^-1
Substance: LYI-labeled human αA-crystallin wild type (from UniProt P02489 1-173) (natural protein)
